This is an account of results in EP4740964A1, “NANO DELIVERY SYSTEM, PREPARATION METHOD THEREFOR AND USE THEREOF” (Chen, Haiyan, priority 2023, dated 2025).

The target in test [1] is T1, CD22 on the surface of Raji cells (UniProt P20273 20-847, limits assumed).
T1 construct: whole, on cells; also called antigen CD22
Put plainly: flow cytometry on Raji cells, Alexa Fluor 488 anti-human IgG detection. In general terms: A flow cytometer gives signals particle by particle.

Test [2] concerns the target T2, CD19 on the surface of Raji cells (UniProt P15391 20-556, limits assumed).
T2 construct: whole, on cells; also called antigen CD19
T2 sequence (looked up): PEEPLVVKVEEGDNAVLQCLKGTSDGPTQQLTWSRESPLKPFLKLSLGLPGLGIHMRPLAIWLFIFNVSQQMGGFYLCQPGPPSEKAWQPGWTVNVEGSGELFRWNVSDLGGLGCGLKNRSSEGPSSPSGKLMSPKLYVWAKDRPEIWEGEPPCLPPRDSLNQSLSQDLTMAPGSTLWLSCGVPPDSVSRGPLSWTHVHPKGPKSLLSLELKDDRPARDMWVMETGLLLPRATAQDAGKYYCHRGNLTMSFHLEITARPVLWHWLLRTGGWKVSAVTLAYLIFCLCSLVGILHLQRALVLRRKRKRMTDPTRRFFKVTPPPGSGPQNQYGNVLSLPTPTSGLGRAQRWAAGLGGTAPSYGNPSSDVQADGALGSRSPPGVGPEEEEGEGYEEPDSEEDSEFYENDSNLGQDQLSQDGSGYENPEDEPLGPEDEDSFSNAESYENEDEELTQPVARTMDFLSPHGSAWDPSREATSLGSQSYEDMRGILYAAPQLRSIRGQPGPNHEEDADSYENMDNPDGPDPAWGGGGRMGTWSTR
Described as above.

B1: CD22 IgG antibody (antibody, V domains shown)
VH: EVQLVQSGAEVKKPGASVKVSCKASGYRFTNYWIHWVRQAPGQGLEWIGGINPGNNYATYRRKFQGRVTMTADTSTSTVYMELSSLRSEDTAVYYCTREGYGNYGAWFAYWGQGTLVTVSS
VL: DVQVTQSPSSLSASVGDRVTITCRSSQSLANSYGNTFLSWYLHKPGKAPQLLIYGISNRFSGVPDRFSGSGSGTDFTLTISSLQPEDFATYYCLQGTHQPYTFGQGTKVEIKR
Take B1: the binding result in test [1] was “binds”.

B2: CD19 IgG antibody (antibody, V domains shown)
VH: QVQLVQSGAEVKKPGSSVKVSCKASGYAFSSYWMNWVRQAPGQGLEWMGQIWPGDSDTNYAQKFQGRVTITADESTSTAYMELSSLRSEDTAVYYCARRETTTVGRYYYAMDYWGQGTTVTVSS
VL: DIQLTQSPSFLSASVGDRVTITCKASQSVDYSGDSYLNWYQQKPGKAPKLLIYDASNLVSGVPSRFSGSGSGTEFTLTISSLQPEDFATYYCQQSTENPWTFGGGTKLEIKR
As to B2, the binding result in test [2] is listed as “binds”.

B3: CD19 antibody antigen-binding fragment Fab (Fab, V domains shown)
VH: B2 VH
VL: B2 VL
notes: also called CD19 Fab
B3: the binding result in test [2] was “binds”.
